In PMC12409452:

Each substance was assayed against mitochondrial electron transport chain complex III2 (UniProt P22695) (assay: BN-PAGE immunoblot (Ndufb8), band quantification). Conditions: A549 cells transfected with Ndufs1 plasmid; respirasome band CIn+CIIIn+CIVn normalised to free CI band; n = 3, mean ± SD; parent: est. 0.04; read off a plot.
UniProt P22695, sequence (P22695 whole entry, looked up, one chain of several): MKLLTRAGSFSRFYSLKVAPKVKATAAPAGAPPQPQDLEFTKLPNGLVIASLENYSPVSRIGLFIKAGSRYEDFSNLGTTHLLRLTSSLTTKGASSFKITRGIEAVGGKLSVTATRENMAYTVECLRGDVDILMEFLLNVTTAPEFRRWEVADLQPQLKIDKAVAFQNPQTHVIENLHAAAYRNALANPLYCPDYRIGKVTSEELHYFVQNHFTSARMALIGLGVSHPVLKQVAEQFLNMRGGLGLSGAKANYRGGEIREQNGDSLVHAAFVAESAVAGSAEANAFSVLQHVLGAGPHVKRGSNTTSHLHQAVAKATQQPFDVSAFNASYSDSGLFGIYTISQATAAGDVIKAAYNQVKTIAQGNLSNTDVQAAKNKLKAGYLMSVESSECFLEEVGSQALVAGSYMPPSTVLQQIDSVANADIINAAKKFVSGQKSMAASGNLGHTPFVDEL

Substance | other: Relative Respirasome level (vs CI)
mitochondrial electron transport chain complex I with wild-type Ndufs1 (from UniProt P28331;O95169) C92D | 1.5
mitochondrial electron transport chain complex I with wild-type Ndufs1 (from UniProt P28331;O95169) C367D | 0.15
mitochondrial electron transport chain complex I with wild-type Ndufs1 (from UniProt P28331;O95169) C64D | 1.9
mitochondrial electron transport chain complex I with wild-type Ndufs1 (from UniProt P28331;O95169) C78D | 1.4
mitochondrial electron transport chain complex I with wild-type Ndufs1 (from UniProt P28331;O95169) C564D | 1.2
mitochondrial electron transport chain complex I with wild-type Ndufs1 (from UniProt P28331;O95169) C75D | 1.9
mitochondrial electron transport chain complex I with wild-type Ndufs1 (from UniProt P28331;O95169) C727D | 1
mitochondrial electron transport chain complex I with wild-type Ndufs1 (from UniProt P28331;O95169) C554D | 1.1
